These results are taken from US20250154283A1 (published 2025).

For assay [1], the target named is T1, biotinylated human VWF cysteine knot (CK) domain construct (human, UniProt P04275 2724-2813, biotinylated in vitro (BirA) on the biotinylation tag; one N-glycan).
T1 construct: Expressed in HEK293 EBNA cells; disulfide-linked homodimer; also called human VWF CK; human VWF CK domain; not shown: in vitro biotinylation tag, HRV-3C site and 3 VWF residues before the CK domain
In words: SPR, scFv captured via anti-SV5, CK domain injected, pH 5.5, apparent Kd.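 Also: scFvs from crude yeast supernatants captured on chip-bound anti-SV5 antibody, Kd computed as koff divided by kon, dimeric CK construct likely makes affinity appear higher.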 Background: Surface plasmon resonance follows binding to a sensor surface in real time, without labels.

Assay [2] addresses T1, biotinylated human VWF cysteine knot …. The assay is described as follows: SPR, scFv captured via anti-SV5, CK domain injected, pH 7.4, apparent Kd.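 Also: scFvs from crude yeast supernatants printed on an amine-coupled anti-SV5 lawn, Kd computed as koff over kon, likely overestimating affinity because the CK construct is dimeric.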
Excerpt: Briefly, a sensor chip was activated and coupled with an anti-SV5 mouse monoclonal antibody using amine coupling. The soluble scFvs in crude yeast supernatants were printed on the anti-SV5 lawn. […] From the measured association (kₒₙ) and dissociation (koff) rate constants, an apparent equilibrium dissociation constant (Kd=koff/kₒₙ) was estimated. Due to the dimeric state of the CK construct and consequent possibility for simultaneous binding of captured scFv to both monomers in the CK dimer, the SPR setup was expected to overestimate the binding affinity.
Assay [3] deals with T2, biotinylated cynomolgus monkey VWF cysteine knot (CK) domain construct (cynomolgus monkey, biotinylated in vitro (BirA) on the biotinylation tag; one N-glycan).
T2 construct: Expressed in HEK293 EBNA cells; disulfide-linked homodimer; also called cyno VWF CK; cyno VWF CK domain; not shown: in vitro biotinylation tag, HRV-3C site and 3 VWF residues before the CK domain
T2 chain: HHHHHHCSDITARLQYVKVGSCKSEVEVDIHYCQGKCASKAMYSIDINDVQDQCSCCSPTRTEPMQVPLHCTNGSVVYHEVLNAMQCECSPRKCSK
The assay is described as above.

B1: 17561_Lib6_scFv (scFv)
scFv: EVQLVQSGAEVKKPGASVKVSCKASGYTFTDLPISWVRQAPGQGLEWMGWINPYTGDTNYAQKLQGRGTMTTDPSTSTAYMELRSLRSDDTAVYYCARDGVILGYYYYYGMDVWGQGTTVTVSSSGGSTITSYNVYYTKLSSSGTESALTQPASVSGSPGQSITISCTGTDLGSKSVSWYQQHPGKAPKLMIYDNFNRPSGVSNRFSGSKSGNTASLTISGLQAEDEADYYCSSRTVSGTYVFGGGTKLTVL
notes: VH-linker-VL; not shown: C-terminal 3xFLAG and SV5 tags
For the molecule B1, the Kd worked out at 1.79 nM in assay [1], 9.25 nM in assay [2] and 5.24 nM in assay [3].

B2: 4675_Lib4_scFv (scFv)
scFv: QVQLQESGPGLVKPSQTLSLTCTVSGFSLTSHPEGVNWIRQPPGKGLEWIGYIAHSGTTDYNPSLKSRVTMSVDTSKNQFSLKVNSVTAADTAVYYCARAYGDSDAFDIWGQGTMVTVSSSGGSTITSYNVYYTKLSSSGTEIVMTQSPATLSLSPGERATLSCRASQSIGRNLAWYQQKPGQAPRLLIYGASKRVTGIPARFSGSGSGTDFTLTISSLEPEDFAVYYCQQYSTWPTFGGGTKVEIK
notes: as for B1
For B2, the Kd in assay [1] is 13.6 nM; in assay [2], 4.26 nM; in assay [3] it was 2.42 nM.

B3: Lib6_P3_A8_scFv (scFv)
scFv: EVQLVQSGAEVKKPGASVKVSCKASGYRFTNYDISWVRQAPGQGLEWMGGINPSSGITIYAQKLQGRGTMTTDPSTSTAYMELRSLRSDDTAVYYCARGAAYGDYLDYWGQGTLVTVSSSGGSTITSYNVYYTKLSSSGTESALTQPASVSGSPGQSITISCTGTNLGEKYVSWYQQHPGKAPKLMIYSTSQRPSGVSNRFSGSKSGNTASLTITGLQAEDEADYYCSSYTASSTPGLVFGGGTKLTVL
notes: as for B1
For B3, the Kd worked out at 0.872 nM in assay [1], 2.72 nM in assay [2] and 0.435 nM in assay [3].

B4: Lib6_P3_A4_scFv (scFv)
scFv: QVQLVQSGAEVKKPGASVKVSCKVSGDTLSNYAIHWVRQAPGKGLEWMGGINPNAGTTIYAQKFQGRVTMTEDTSTDTAYMELSSLKSEDTAVYYCARDSSSWCPVGYYYYYMDVWGKGTTVTVSSSGGSTITSYNVYYTKLSSSGTDIQMTQSPSSVSASVGDRVTITCRASQSIGDFLAWYQQKPGKAPKLLIYDASHLQTGVPSRFSGSGSGTDFTLTISSLQPEDFANYYCQQTSTIPPTFGGGTKVEIK
notes: as for B1
On to B4, for which the Kd worked out at 0.52 nM in assay [1], 4.97 nM in assay [2] and 3.46 nM in assay [3].

B5: Lib4_P2_D1_scFv (scFv)
scFv: B4 scFv
notes: as for B1
Regarding B5, the values for the Kd in assay [1], in assay [2] and in assay [3] were 0.984 nM, 5.02 nM and 0.517 nM, respectively.

B6: Lib1_P1_A5_scFv (scFv)
scFv: B4 scFv
notes: as for B1
Take B6: the Kd in assay [1] is 5.02 nM; in assay [2], 6.37 nM; in assay [3], 1.74 nM.

B7: Lib1_P1_A9_scFv (scFv)
scFv: QVQLVQSGAEVKKPGASVKVSCKVSGDTLSSYGIHWVRQAPGKGLEWMGGSIPSFGTAIYAQKFQGRVTMTEDTSTDTAYMELSSLKSEDTAVYYCTSEGPWLPFFSFDYWGQGTLVTVSSSGGSTITSYNVYYTKLSSSGTDIQMTQSPSSVSASVGDRVTITCRASQGISRNLAWYQQKPGKAPKLLIYKASSLASGVPSRFSGSGSGTDFTLTISSLQPEDFANYYCQQSFSTPVTFGGGTKVEIK
notes: as for B1
Turning to B7, the Kd in assay [1] is 0.018 nM; in assay [2], 0.051 nM; in assay [3], 0.205 nM.

B8: 76_Lib4_scFv (scFv)
scFv: QVQLQESGPGLVKPSQTLSLTCTVSGVSISNHYWSWIRQPPGKGLEWIGYIDESGSTDYNPSLKSRVTMSVDTSKNQFSLKVNSVTAADTAVYYCARVSWGYYAMDVWGQGTTVTVSSSGGSTITSYNVYYTKLSSSGTEIVMTQSPATLSLSPGERATLSCRASQGVSGHLAWYQQKPGQAPRLLIYETSKRATGIPARFSGSGSGTDFTLTISSLEPEDFAVYYCQQYNDYPLGFGGGTKVEIK
notes: as for B1
Regarding B8, the Kd in assay [1] turned out to be 0.366 nM; in assay [2], 3.91 nM; in assay [3], 1.29 nM.

B9: 5662_Lib8_scFv (scFv)
scFv: EVQLVESGGGLVQPGRSLRLSCAASGFNFHNYDMHWVRQAPGKGLEWVSAIDISGQSTDYADSVEGRFTISRDNAKNSLYLQMNSLRAEDTAVYYCAREGWYGGVFDYWGQGTLVTVSSSGGSTITSYNVYYTKLSSSGTDIQMTQSPSSLSASVGDRVTITCRASQDIANWLAWYQQKPGKAPKLLIYGASESGVGVPSRFSGSGSGTDFTLTISSLQPEDVATYYCQQSLTMKTFGGGTKVEIK
notes: as for B1
Turning to B9, the Kd in assay [1] amounted to 0.687 nM; in assay [2] it was 4.31 nM; in assay [3], 1.36 nM.

B10: 4761_Lib8_scFv (scFv)
scFv: EVQLVESGGGLVQPGRSLRLSCAASGFTFSSDTMHWVRQAPGKGLEWVSAISSSGDHTDYADSVEGRFTISRDNAKNSLYLQMNSLRAEDTAVYYCAREGLRGYYFDYWGQGTLVTVSSSGGSTITSYNVYYTKLSSSGTDIQMTQSPSSLSASVGDRVTITCRASQGISGHLAWYQQKPGKAPKLLIYAASALQSGVPSRFSGSGSGTDFTLTISSLQPEDVATYYCQQSHSLPWTFGGGTKVEIK
notes: as for B1
Take B10: the Kd is 1.33 nM in assay [1], 7.56 nM in assay [2] and 2.67 nM in assay [3].

B11: Lib4_P2_A10_scFv (scFv)
scFv: QVQLQESGPGLVKPSQTLSLTCTVSGASLGHQYWSWIRQPPGKGLEWIGYIDTSGSTDYNPSLKSRVTMSVDTSKNQFSLKVNSVTAADTAVYYCARVANYYYYMDVWGKGTTVTVSSSGGSTITSYNVYYTKLSSSGTEIVMTQSPATLSLSPGERATLSCRASQSVSNRLAWYQQKPGQAPRLLIYDASNRATGIPARFSGSGSGTDFTLTISSLEPEDFAVYYCQQYFITPSTFGGGTKVEIK
notes: as for B1
As to B11, the Kd in assay [1] amounted to 3.36 nM; in assay [2], 2.7 nM; in assay [3] it was 0.733 nM.

B12: 965_Lib4_scFv (scFv)
scFv: QVQLQESGPGLVKPSQTLSLTCTVSGASFGDNYWSWIRQPPGKGLEWIGYIDTSGSSDYNPSLKSRVTMSVDTSKNQFSLKVNSVTAADTAVYYCARDALGYYYMDVWGKGTTVTVSSSGGSTITSYNVYYTKLSSSGTEIVMTQSPATLSLSPGERATLSCRASQGISGRLAWYQQKPGQAPRLLIYDASARASGIPARFSGSGSGTDFTLTISSLEPEDFAVYYCQQYGTSPYTFGGGTKVEIK
notes: as for B1
Regarding B12, the Kd in assay [1] was 0.621 nM; in assay [2], 2.79 nM; in assay [3], 1.17 nM.

B13: 69_Lib8_scFv (scFv)
scFv: EVQLVESGGGLVQPGRSLRLSCAASAFTFSNYDMHWVRQAPGKGLEWVSAISGSGDTSDYADSVEGRFTISRDNAKNSLYLQMNSLRAEDTAVYYCVRASWYGTFFDYWGQGTLVTVSSSGGSTITSYNVYYTKLSSSGTDIQMTQSPSSLSASVGDRVTITCRASQSVSGWLAWYQQKPGKAPKLLIYGTSTLQSGVPSRFSGSGSGTDFTLTISSLQPEDVATYYCQQSYSAPYTFGGGTKVEIK
notes: as for B1
Regarding B13, the Kd in assay [1] was 0.859 nM; in assay [2] it was 3.7 nM; in assay [3] it was 1.05 nM.

B14: Lib1_P1_F10_scFv (scFv)
scFv: QVQLVQSGAEVKKPGASVKVSCKVSGYTFSSSGIHWVRQAPGKGLEWMGGIFPNFGTAIYAQKFQGRVTMTEDTSTDTAYMELSSLKSEDTAVYYCARESDFWSGSFTNWGQGTLVTVSSSGGSTITSYNVYYTKLSSSGTDIQMTQSPSSVSASVGDRVTITCRASRSIGNWLAWYQQKPGKAPKLLIYDAFNRASGVPSRFSGSGSGTDFTLTISSLQPEDFANYYCQQSYSTLPRYSFGGGTKVEIK
notes: as for B1
For the molecule B14, the Kd was found to be 15.3 nM in assay [1], 4.97 nM in assay [2] and 1.5 nM in assay [3].

B15: 15244_Lib8_scFv (scFv)
scFv: EVQLVESGGGLVQPGRSLRLSCAASGFTFADYDMHWVRQAPGKGLEWVSATSSHGVTTDYADSVEGRFTISRDNAKNSLYLQMNSLRAEDTAVYYCARGAWSGIAARQYIDYWGQGTLVTVSSSGGSTITSYNVYYTKLSSSGTDIQMTQSPSSLSASVGDRVTITCRASQTIGYWLAWYQQKPGKAPKLLIYDASVPESGVPSRFSGSGSGTDFTLTISSLQPEDVATYYCQQSYSYPLTFGGGTKVEIK
notes: as for B1
On to B15, for which the Kd stood at 1.05 nM in assay [1], 3.05 nM in assay [2] and 1.91 nM in assay [3].

B16: 27_Lib4_scFv (scFv)
scFv: QVQLQESGPGLVKPSQTLSLTCTVSGASFGDHYWSWIRQPPGKGLEWIGYIDATGSIDYNPSLKSRVTMSVDTSKNQFSLKVNSVTAADTAVYYCARVASYYYYMDVWGKGTTVTVSSSGGSTITSYNVYYTKLSSSGTEIVMTQSPATLSLSPGERATLSCRASQSITGSYLAWYQQKPGQAPRLLIYGASDRAPGIPARFSGSGSGTDFTLTISSLEPEDFAVYYCQQYGSFPYTFGGGTKVEIK
notes: as for B1
B16: the Kd is 0.443 nM in assay [1], 2.85 nM in assay [2] and 0.656 nM in assay [3].

B17: 9312_Lib8_scFv (scFv)
scFv: EVQLVESGGGLVQPGRSLRLSCAASGFSLSTYDMHWVRQAPGKGLEWVSAISSSGDTRDYADSVEGRFTISRDNAKNSLYLQMNSLRAEDTAVYYCARAFWGGDAFDIWGQGTMVTVSSSGGSTITSYNVYYTKLSSSGTDIQMTQSPSSLSASVGDRVTITCRASQTIGYWLAWYQQKPGKAPKLLIYGASTLEGGVPSRFSGSGSGTDFTLTISSLQPEDVATYYCQHSYSAPPTFGGGTKVEIK
notes: as for B1
In the case of B17, the results for the Kd in assay [1], in assay [2] and in assay [3] were 21.6 nM, 6.56 nM and 1.8 nM, respectively.
